Measured values taken from patent US20180326085A1 (Merck KGaA, published 2018).

Columns and labels:
[1] = target: T1, c-MET and EGFR co-expressed on cells (human, UniProt P08581;P00533); test: flow cytometry, A549 cells (c-MET+ EGFR++)
T1 construct: endogenous receptor on the cell surface; not a complex: two separate receptors on the same cell; used as target only for bispecific c-MET x EGFR molecules, whose cell staining cannot be split between the two arms; also called cells that carry both receptors: NCI-H441, EBC-1, A431, MKN-45, A549, HepG2 (cell line under assay)

[2] = target: T1, c-MET and EGFR co-expressed on cells; test: flow cytometry, HepG2 cells (c-MET+ EGFR+)
[3] = target: T1, c-MET and EGFR co-expressed on cells; test: flow cytometry, A431 cells (c-MET+ EGFR+++)
c-MET on cells = target: T2, c-MET on cells (human, UniProt P08581); test: flow cytometry, SK-MEL2 cells (c-MET+ EGFR-)
T2 construct: endogenous receptor on the cell surface; for A549 cells m4 is used; also called HGFR; on NCI-H441, EBC-1, A431, MKN-45, SK-MEL2 or HepG2 cells (cell line under assay)

[4] = target: T1, c-MET and EGFR co-expressed on cells; test: flow cytometry, EBC-1 cells (c-MET+++ EGFR++)
[5] = target: T1, c-MET and EGFR co-expressed on cells; test: flow cytometry, MKN-45 cells (c-MET+++ EGFR++)
[6] = target: T3, EGFR (soluble extracellular domain) (human, UniProt P00533); test: BLI (Octet), antibody on anti-human Fc biosensors, soluble EGFR ECD as analyte
T3 construct: soluble extracellular domain; also called Human EGFR extracellular domain, R&D Systems 1095-ER

B1: B10v5x425 (bispecific antibody, V domains shown)
VL (c-MET arm): EPVLTQPPSVSVAPGETATIPCGGDSLGSKIVHWYQQRPGQAPLLVVYDDAARPSGIPERFSGSKSGTTATLTISSVEAGDEADYFCQVYDYHSDVEVFGGGTKLTVLGQPKAA
VH (c-MET arm): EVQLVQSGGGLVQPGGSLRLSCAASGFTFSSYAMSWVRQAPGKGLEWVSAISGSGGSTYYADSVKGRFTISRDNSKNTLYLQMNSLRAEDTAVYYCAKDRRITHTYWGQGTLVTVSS
VL (EGFR arm): DIQMTQSPSSLSASVGDRVTITCSASSSVTYMYWYQQKPGKAPKLLIYDTSNLASGVPSRFSGSGSGTDYTFTISSLQPEDIATYYCQQWSSHIFTFGQGTKVEIKR
VH (EGFR arm): QVQLVQSGAEVKKPGASVKVSCKASGYTFTSHWMHWVRQAPGQGLEWIGEFNPSNGRTNYNEKFKSKATMTVDTSTNTAYMELSSLRSEDTAVYYCASRDYDYDGRYFDYWGQGTLVTVSS
notes: c-MET x EGFR SEED bispecific
- MFI at 100 nM [1]: 328
- MFI at 100 nM [2]: 348
- MFI at 100 nM [3]: 1430
- MFI at 100 nM (c-MET on cells): 213
- MFI at 100 nM [4]: 1960
- MFI at 100 nM [5]: 1280

B2: CS06x425 (bispecific antibody, V domains shown)
VL (c-MET arm): QLVLTQSPSVSVAPGKTARITCGGNNIRNVGVHWYQKKPGQAPILVVYDDDDRPSGVPERFSGSNSGNTATLTISRVEAGDEADYYCQVWDSATDQRVFGGGTKLTVLGQPKAG
VH (c-MET arm): QVQLQQSGAEVKKPGSSAKVSCKASGGTFSSNAISWVRQAPGQGLEWMGGIIPIFGTAIYAQKFQGRVTITADESTSTAYMELSSLRSEDTAVYYCARDQRGYYYYYYYGMDVWGQGTTVTVSS
VL (EGFR arm): DIQMTQSPSSLSASVGDRVTITCSASSSVTYMYWYQQKPGKAPKLLIYDTSNLASGVPSRFSGSGSGTDYTFTISSLQPEDIATYYCQQWSSHIFTFGQGTKVEIKR
VH (EGFR arm): QVQLVQSGAEVKKPGASVKVSCKASGYTFTSHWMHWVRQAPGQGLEWIGEFNPSNGRTNYNEKFKSKATMTVDTSTNTAYMELSSLRSEDTAVYYCASRDYDYDGRYFDYWGQGTLVTVSS
notes: c-MET x EGFR SEED bispecific
- MFI at 100 nM [1]: 268
- MFI at 100 nM [2]: 164
- MFI at 100 nM [3]: 1350
- MFI at 100 nM (c-MET on cells): 132
- MFI at 100 nM [4]: 1370
- MFI at 100 nM [5]: 1450

B3: B10x425 (bispecific antibody, V domains shown)
VL (c-MET arm): QSVLTQPPSTSGTPGQRVTISCFGSSSNVGVNTVNWYRQLPGTAPKLLIYDNNLRPSGVPERFSGSKSGTSASLAITGLQAEDEGDYYCQSYDSSLSDVVFGGGTKLTVLGQPKAG
VH (c-MET arm): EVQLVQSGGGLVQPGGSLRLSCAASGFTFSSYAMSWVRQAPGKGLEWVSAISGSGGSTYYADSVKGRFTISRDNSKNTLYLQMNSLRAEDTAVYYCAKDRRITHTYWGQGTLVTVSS
VL (EGFR arm): DIQMTQSPSSLSASVGDRVTITCSASSSVTYMYWYQQKPGKAPKLLIYDTSNLASGVPSRFSGSGSGTDYTFTISSLQPEDIATYYCQQWSSHIFTFGQGTKVEIKR
VH (EGFR arm): QVQLVQSGAEVKKPGASVKVSCKASGYTFTSHWMHWVRQAPGQGLEWIGEFNPSNGRTNYNEKFKSKATMTVDTSTNTAYMELSSLRSEDTAVYYCASRDYDYDGRYFDYWGQGTLVTVSS
notes: c-MET x EGFR SEED bispecific
- MFI at 100 nM [1]: 270
- MFI at 100 nM [2]: 101
- MFI at 100 nM [3]: 1120
- MFI at 100 nM (c-MET on cells): 25
- MFI at 100 nM [4]: 361
- MFI at 100 nM [5]: 1260

B4: matuzumab (425) (antibody, V domains shown)
VH: QVQLVQSGAEVKKPGASVKVSCKASGYTFTSHWMHWVRQAPGQGLEWIGEFNPSNGRTNYNEKFKSKATMTVDTSTNTAYMELSSLRSEDTAVYYCASRDYDYDGRYFDYWGQGTLVTVSS
VL: DIQMTQSPSSLSASVGDRVTITCSASSSVTYMYWYQQKPGKAPKLLIYDTSNLASGVPSRFSGSGSGTDYTFTISSLQPEDIATYYCQQWSSHIFTFGQGTKVEIKG
- Kd [6]: 12 nM
- koff [6]: 0.0078 s⁻¹
- kon [6]: 640000 M⁻¹ s⁻¹

B5: CS06x225-L (bispecific antibody, V domains shown)
VL (c-MET arm): QLVLTQSPSVSVAPGKTARITCGGNNIRNVGVHWYQKKPGQAPILVVYDDDDRPSGVPERFSGSNSGNTATLTISRVEAGDEADYYCQVWDSATDQRVFGGGTKLTVLGQPKAG
VH (c-MET arm): QVQLQQSGAEVKKPGSSAKVSCKASGGTFSSNAISWVRQAPGQGLEWMGGIIPIFGTAIYAQKFQGRVTITADESTSTAYMELSSLRSEDTAVYYCARDQRGYYYYYYYGMDVWGQGTTVTVSS
VL (EGFR arm): DIQMTQSPSSLSASVGDRVTITCRASQSIGTNIHWYQQKPGKAPKLLIKYASESISGVPSRFSGSGYGTDFTLTISSLQPEDVATYYCQQNNNWPTTFGQGTKVEIK
VH (EGFR arm): EVQLVQSGAEVKKPGASVKVSCKASGFSLTNYGVHWMRQAPGQGLEWIGVIWRGGNTDYNTPFTSRVTITSDKSTSTAYMELSSLRSEDTAVYYCARALTYYDYEFAYWGQGTLVTVSS
notes: c-MET x EGFR SEED bispecific
- MFI at 100 nM [1]: 212
- MFI at 100 nM [2]: 254
- MFI at 100 nM [3]: 890
- MFI at 100 nM (c-MET on cells): 188
- MFI at 100 nM [4]: 2048
- MFI at 100 nM [5]: 1530

B6: B10x225-L (bispecific antibody, V domains shown)
VL (c-MET arm): QSVLTQPPSTSGTPGQRVTISCFGSSSNVGVNTVNWYRQLPGTAPKLLIYDNNLRPSGVPERFSGSKSGTSASLAITGLQAEDEGDYYCQSYDSSLSDVVFGGGTKLTVLGQPKAG
VH (c-MET arm): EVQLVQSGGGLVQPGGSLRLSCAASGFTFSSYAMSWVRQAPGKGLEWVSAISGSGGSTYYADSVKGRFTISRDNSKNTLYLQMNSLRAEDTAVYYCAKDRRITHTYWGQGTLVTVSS
VL (EGFR arm): DIQMTQSPSSLSASVGDRVTITCRASQSIGTNIHWYQQKPGKAPKLLIKYASESISGVPSRFSGSGYGTDFTLTISSLQPEDVATYYCQQNNNWPTTFGQGTKVEIK
VH (EGFR arm): EVQLVQSGAEVKKPGASVKVSCKASGFSLTNYGVHWMRQAPGQGLEWIGVIWRGGNTDYNTPFTSRVTITSDKSTSTAYMELSSLRSEDTAVYYCARALTYYDYEFAYWGQGTLVTVSS
notes: c-MET x EGFR SEED bispecific; also called 225L, B10
- MFI at 100 nM [1]: 192
- MFI at 100 nM [2]: 85
- MFI at 100 nM [3]: 947
- MFI at 100 nM (c-MET on cells): 23
- MFI at 100 nM [4]: 434
- MFI at 100 nM [5]: 1220

B7: B10x225-M (bispecific antibody, V domains shown)
VL (c-MET arm): QSVLTQPPSTSGTPGQRVTISCFGSSSNVGVNTVNWYRQLPGTAPKLLIYDNNLRPSGVPERFSGSKSGTSASLAITGLQAEDEGDYYCQSYDSSLSDVVFGGGTKLTVLGQPKAG
VH (c-MET arm): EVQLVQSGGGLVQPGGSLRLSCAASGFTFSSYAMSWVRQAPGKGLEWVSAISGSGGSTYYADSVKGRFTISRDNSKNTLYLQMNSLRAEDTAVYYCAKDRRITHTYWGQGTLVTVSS
VL (EGFR arm): DIQMTQSPSSLSASVGDRVTITCRASQSIGTNIHWYQQKPGKAPKLLIKYASESISGVPSRFSGSGYGTDFTLTISSLQPEDVATYYCQQNYNWPTTFGQGTKVEIK
VH (EGFR arm): EVQLVQSGAEVKKPGASVKVSCKASGFSLTNYGVHWMRQAPGQGLEWIGVIWSGGNTDYNTPFTSRVTITSDKSTSTAYMELSSLRSEDTAVYYCARALTYYDYEFAYWGQGTLVTVSS
notes: c-MET x EGFR SEED bispecific
- MFI at 100 nM [1]: 572
- MFI at 100 nM [2]: 84
- MFI at 100 nM [3]: 1480
- MFI at 100 nM (c-MET on cells): 53
- MFI at 100 nM [4]: 671
- MFI at 100 nM [5]: 1790

B8: B10x225-H (bispecific antibody, V domains shown)
VL (c-MET arm): QSVLTQPPSTSGTPGQRVTISCFGSSSNVGVNTVNWYRQLPGTAPKLLIYDNNLRPSGVPERFSGSKSGTSASLAITGLQAEDEGDYYCQSYDSSLSDVVFGGGTKLTVLGQPKAG
VH (c-MET arm): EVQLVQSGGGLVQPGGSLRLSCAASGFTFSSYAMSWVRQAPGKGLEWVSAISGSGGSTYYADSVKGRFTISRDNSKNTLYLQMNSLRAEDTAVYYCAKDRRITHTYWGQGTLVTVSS
VL (EGFR arm): DIQMTQSPSSLSASVGDRVTITCRASQSIGTNIHWYQQKPGKAPKLLIKYASESISGVPSRFSGSGYGTDFTLTISSLQPEDVATYYCQQNNEWPNTFGQGTKVEIK
VH (EGFR arm): EVQLVQSGAEVKKPGASVKVSCKASGFSLTNYGVHWMRQAPGQGLEWIGVIWSGGNTDYNTPFTSRVTITSDKSTSTAYMELSSLRSEDTAVYYCARALDYYDYEFAYWGQGTLVTVSS
notes: c-MET x EGFR SEED bispecific
- MFI at 100 nM [1]: 454
- MFI at 100 nM [2]: 100
- MFI at 100 nM [3]: 1980
- MFI at 100 nM (c-MET on cells): 64
- MFI at 100 nM [4]: 948
- MFI at 100 nM [5]: 1320
